The nature of series [1]: Product analysis of reactions of purified His-tag protein with dicamba (14C assay, GC/MS, LC-MS/MS). It counts as biochemical. The settings on record: purified protein incubated with dicamba. Here is the method: Alternatively, dicamba decarboxylase activity can be monitored by measuring decarboxylation products other than CO2 using product detection methods. The decarboxylation product of dicamba, 2,5-dichloro anisole or 2,5-DCA (FIG. 1C), is a volatile compound with a flash point of 21° C. To capture this volatile compound for detection, 140 ul of toluene solution is added on top of 1 ml reaction mixture to form a trapping layer in a 1.5 ml eppendorf tube. […] The reaction is kept still at room temperature overnight before being vortex mixed and centrifuged at 14,000 rpm for 15 minutes. The top toluene phase is carefully removed using a micropipette and transferred into a 12×32 mm polypropylene vial (Vial 11 mm) from MicroLiter Analytical Supplies, Inc. (catalog number 11-5300-100). The vial is sealed with Crimp seal (11 mm with FEP/Nat Rubber) from MicroLiter Analytical Supplies, Inc. (catalog number 11-0020A) using a E-Z Crimper™ 11 mm from Wheaton Inc. 1 ul of the toluene mixture is taken from the sealed vials and injected in splitless mode into a GC/MS system for sample analysis (Agilent GC/MS system with a 6890A GC, a 5973N MSD and a CTC CombiPAL auto-sampler or with a 7890A GC, a 5975C MSD and an Agilent GC Sampler 80 auto-sampler).

The nature of series [2]: Dicamba decarboxylation activity of computationally designed protein variants and their parents. The settings on record: statement in the description.
A short description of series [3]: 14C assay with IPTG-induced recombinant E. coli cells: 14CO2 captured from [14C]-carboxyl-labeled dicamba. The settings on record: dicamba decarboxylation activity of the protein of the given SEQ ID NO; High / Low / No.
Series [4] in a line: Saturation mutagenesis of SEQ ID NO:109: dicamba decarboxylation activity of point mutants (carbon dioxide released). Particulars: decarboxylation activity (carbon dioxide released) of point mutant compared with unmutated backbone protein; backbone SEQ ID NO: 109.

B1: 118 (protein)
chain: MAKKPRIDMHSHFFPRISEQEAAKFDANHAPWLQVSAKGDTGSIMMGKNNFQPVYQALWDPAFRIEEMDAQGVDVQVTCATPVMFGYTWEANKAAQWAERMNDFALEFAAHNPQRIKVLAQVPLQDLDLACKEASRAVAAGHLGIQIGNHLGDKDLDDATLEAFLTHCANEDIPILVHGTDMMGGQRMKKWGLPWLVALAAEVQLAILSLILSGAFERIPKSLKICFSHGGGSFAFLLGLVDEAWRHVDIVREDCPRPPSEYVDRFFVDSVGNPGALELLVSVMGEDRVMLGSDYPHTTGEQKIGGLVLSSNLGESAKDKIISGNASKFFNINV
modifications: Dicamba decarboxylase variant clone: DC.5.033
As to B1, the “enzymatic reaction products detected” value in series [1] is 2,5-DCA was detected. Also, in series [2], the “dicamba decarboxylase activity (native protein or designed variant)” value (“dicamba decarboxylase activity” for short) was “have dicamba decarboxylase activity”. Moreover, the “Enzymatic Detection level” value in series [3] is given as “High”. Also, the “Fold Activity” value in series [4] is 1.4.

B2: 119 (protein)
chain: MAKKPRIDMHSHFFPRISEQEAAKFDANHAPWLQVSAKGDTGSIMMGKNNFQPVYQALWDPAFRIEEMDAQGVDVQVTCATPVMFGYTWEANKAAQWAERMNDFALEFAAHNPQRIKVLAQVPLQDLDLACKEASRAVAAGHLGIQIGNHLGDKDLDDATLEAFLTHCANEDIPILVHGWDMMGGQRMKKWGLYWLVAHHAEVQLAILSLILSGAFERIPKSLKICFSHGGGSFAFTLGWVDEAWRHVDIVREDCPRPPSEYVDRFFVDSVGNPGALELLVSVMGEDRVMLGSDYPLTTGEQKIGGLVLSSNLGESAKDKIISGNASKFFNINV
modifications: Dicamba decarboxylase variant clone:DC.5.034
In the case of B2, the “enzymatic reaction products detected” value in series [1] is 2,5-DCA was detected. Besides, the “dicamba decarboxylase activity” value in series [2] is given as “have dicamba decarboxylase activity”. The “Enzymatic Detection level” value in series [3] is given as “High”. In addition, in series [4], the “Fold Activity” value stood at 1.6.

B3: 120 (protein)
chain: MAIIDCHGHYTTTPKGVETYRNAQKAAVAKDPSFKYEKGQVVVSDDEIRESIENNQLKMQRERGTDLTIFSPRSTAGGHHIGNEYTSQFWTEHQNDLIRRVCDLFPKNFAPVAQLPQSPGVDPAKSVPEIVRTVEQMGFIGINLNPDPSGGYWKDTSLADRAFYPIYEKMVEYDIPAMIHPRNACNDCFHTTGSHALGADTTGFQQLIMSDVFKDFPSLKIIIPHGGGAVPYHWGRFRGLMQDQGYAPLEESALKNIYFDTCVYHQRGIDLLLDIVPTQNILFASEMIGAVRGIDAETGHNFDDTKRYIDNNTALNAEEKAMIFEGNARRVFSRLKTD
modifications: Dicamba decarboxylase variant clone: DC.12.002
For B3, the “enzymatic reaction products detected” value in series [1] is reported as 2,5-DCA was detected. Also, the “dicamba decarboxylase activity” value in series [2] is reported as “have dicamba decarboxylase activity”. Moreover, the “Enzymatic Detection level” value in series [3] is listed as “High”. Besides, in series [4], the “Fold Activity” value is listed as 1.3.

B4: 122 (protein)
chain: MAIIDCHGHYTTTPKGVEDYRNAQKAAVAKDPSFKGEKGQVVVSDDEIRESIENNQLKMQRERGTDLTIFSPRSTAGGHHIGNEYTSQFWTEHQNDLIRRVCDLFPKNFAPVAQLPQSPGVDPAKSVPEIVRTVEQMGFIGINLNPDPSGGYWKDTSLADRAFYPIYEKMVEYDIPAMIHPRNACNDCFHTTGSHALGADTTGFQQLIMSDVFKDFPSLKIIIPHGGGAVPYHWGRFRGLMQDQGYAPLEESALKNIYFDTCVYHQRGIDLLLDIVPTQNILFASDMIGAVRGIDPETGHNFDDTKRYIDNNTALNAEEKAMIFEGNARRVFSRLKTD
modifications: Dicamba decarboxylase variant clone: DC.12.103
B4: the “enzymatic reaction products detected” value in series [1] was 2,5-DCA was detected. Also, the “dicamba decarboxylase activity” value in series [2] is given as “have dicamba decarboxylase activity”. Further, the “Enzymatic Detection level” value in series [3] was “High”. In addition, the “Fold Activity” value in series [4] is recorded as 0.9.

B5: 121 (protein)
chain: MAIIDCHGHYTTTPKGVEDYRNAQKAAVAKDPSFKGEKGQVVVSDDEIRESIENNQLKMQRERGTDLTIFSPRWDAGGHHIGNEYTSQFWTEHQNDLIRRVCDLFPKNFAPVAQLPQSPGVDPAKSVPEIVRTVEQMGFIGINLNPDPSGGYWKDTSLADRAFYPIYEKMVEYDIPAMIHPRLACNACFHTGLSVGLGADTTGFQQLIMSDVFKDFPSLKIIIPHGGGAVPYHWGRFRGLMQDQGYAPLEESALKNIYFDTCVYHQRGIDLLLDIVPTQNILFASEMIGAVRGIDPETGHNFDDTKRYIDNNTALNAEEKAMIFEGNARRVFSRLKTD
modifications: Dicamba decarboxylase variant clone: DC.12.014
For the molecule B5, the “enzymatic reaction products detected” value in series [1] is 2,5-DCA was detected. The “dicamba decarboxylase activity” value in series [2] is reported as “have dicamba decarboxylase activity”. Further, the “Enzymatic Detection level” value in series [3] was “High”. Also, the “Fold Activity” value in series [4] turned out to be 1.

The values above are taken from patent publication US20160053277A1, “Compositions Having Dicamba Decarboxylase Activity and Methods of Use” (PIONEER HI-BRED INTERNATIONAL, INC., priority 2013, published 2016).
